For 5 substances, P50% (human PBL proliferation, 3H thymidine incorporation) and Reduction (fold, against SMEZ-2 wild type) results are on record in patent US20060246067A1.

For this assay, the target named is T cell Receptor (TcR) on human peripheral blood T lymphocytes. Nature of the assay: cell-based or functional assay.
In turn, SMEZ-2 D42C came in with a P50% (human PBL proliferation, 3H thymidine incorporation) of 10 ng/mL and a Reduction (fold, against SMEZ-2 wild type) of 10000 fold.
For SMEZ-2 W75L, in that order: over 10 ng/mL and over 100000 fold.
For the substance SMEZ-2 W75L.D42C.K182Q (M1), the P50% (human PBL proliferation, 3H thymidine incorporation) is over 10 ng/mL and the Reduction (fold, against SMEZ-2 wild type) was over 100000 fold.
On the same counts, the results for SMEZ-2 W75L.D42C.K182Q.Y18A. (M2) are over 10 ng/mL and over 100000 fold.
On the same counts, the results for SMEZ-2 Y18A are over 10 ng/mL and over 100000 fold.
